This is an account of results in patent US20260083853A1, “CD70 ANTIBODY DRUG CONJUGATES AND METHODS OF USING THE SAME” (Genmab A/S, priority 2022, published 2026).

Where a chain is given by its changes, count along the chain named.

Series [1] has as its system human CD70-expressing tumor cells (Raji, Caki-1, 786-O). In words: In vitro cytotoxicity (CTG, 96 h), all cell lines. It counts as cell-based. As for the experimental part: Raji (ATCC, CCL-86), Caki-1 (Cobioer, CBP60448), and 786-O (BNCC, BNCC338472) were cultured in CO2 thermostatic incubator at 37° C. with 5% CO2 in standard conditions. Cells were sub-cultured every 1-2 days, digested with 0.25% trypsin and passaged with a suitable density. When the cells were in the logarithmic growth phase and the amount meeting the assay's demand, cells were collected and plated onto 96-well solid white flat bottom plates for assay. One day later test articles (2E7 antibody or 2E7-LD038 conjugate ranging from 2 μM to 0.1 nM, or exatecan ranging from 20 μM to 0.03 nM) were added to the cells. Plates were then incubated at 37° C. for 96 h. Cell Titer Glo (CTG) (40 μl per well) was subsequently added to the plates. Luciferase reading was collected 5 min after and analyzed by Microplate readers. All readings were normalized as percentage of viable cells in the untreated control wells and the IC50 values were calculated by Prism software.

The target in series [2] is T1, Human CD70 on CD70-expressing human tumor cell lines (Raji, 786-O, Caki-1) (human, UniProt P32970 1-193).
T1 construct: whole, on cells; Endogenous CD70 on the cells; also called human CD70-expressing cell lines; CD70-positive cell lines 786-O, Raji and Caki-1
T1 sequence (looked up): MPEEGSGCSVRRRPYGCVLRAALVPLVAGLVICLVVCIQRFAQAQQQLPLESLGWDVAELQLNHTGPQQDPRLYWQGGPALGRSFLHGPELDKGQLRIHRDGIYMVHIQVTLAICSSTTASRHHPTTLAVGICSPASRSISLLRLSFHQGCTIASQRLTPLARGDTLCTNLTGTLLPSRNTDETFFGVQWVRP
In words: flow cytometry on Raji cells, detection with PE-conjugated anti-human Fc, MFI(PE). As for the experimental part:
(§1) The binding activity of 2E7 antibody or 2E7-LD038 ADC was evaluated by Flow cytometric analysis (Beckman, Cytoflex) with target-expressing cell lines, Raji, 786-O, Caki-1, and a cell line with negligible CD70 expression, MCF-7. 3×10⁵ cells were seeded per well at 96-well v-bottomed plate and incubated with 100 μl of 2E7 or 2E7-LD038 in serial dilutions. After 30 minutes of incubation at 4° C., cells were washed twice with PBS, stained with 100 μl of 1:200 diluted PE-conjugated anti human Fc in FACS buffer (1×PBS containing 1% BSA) and then incubated at 4° C. for 30 minutes. After that the cells were washed 2 times with PBS and analyzed by Flow cytometric analysis.
(Flow cytometry measures light scatter and fluorescence of single cells or particles in a stream.)

The target in series [3] is T1, Human CD70 on CD70-expressing human …. As to the kind of experiment: flow cytometry on 786-O cells, detection with PE-conjugated anti-human Fc, MFI(PE). As for the experimental part: as §1
Series [4] has the same target. As to the kind of experiment: flow cytometry on Caki-1 cells, detection with PE-conjugated anti-human Fc, MFI(PE). The procedure: as §1
Series [5] addresses T2, Recombinant mouse CD70 extra-cellular domain (ECD) linked to His tag (mouse, UniProt O55237 45-195).
T2 construct: extracellular domain; Purchased or made in house; not shown: His tag
T2 sequence (looked up): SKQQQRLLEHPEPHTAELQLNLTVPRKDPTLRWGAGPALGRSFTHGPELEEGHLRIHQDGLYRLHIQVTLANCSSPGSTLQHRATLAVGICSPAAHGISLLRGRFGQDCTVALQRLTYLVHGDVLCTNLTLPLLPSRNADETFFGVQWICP
In words: BLI (Octet RED), antibody on anti-human IgG Fc tips, CD70 ECD-His in solution 200 to 3.13 nM. As for the experimental part:
(§2) Recombinant proteins consisting of the CD70 extra-cellular domain (ECD) linked to His tag were either purchased (from KACTUS or ACRO biosystems) or synthesized in house. 2E7 antibody or 2E7-LD038 conjugate (20 nM) was immobilized on anti-human IgG Fc biosensor tips (Fortebio). Binding assays using varying concentration from 200 nM down to 3.13 nM of recombinant protein in solution were performed using Octet RED (Fortebio). Association time was set at 180 seconds and dissociation time was set at 300 seconds. Binding affinity was calculated using ForteBio Data Acquisition 6.3 software (ForteBio). Affinity was derived by fitting the kinetic data to a 1:1 Langmuir binding model utilizing global fitting algorithms.
On the technique in general: BLI is a label-free optical method that tracks binding on a fibre tip over time.

Series [6] has as its target T3, Recombinant human CD70 extra-cellular domain (ECD) linked to His tag (human, UniProt P32970 39-193).
T3 construct: extracellular domain; Purchased (KACTUS or ACRO biosystems) or made in house; also called human CD70 protein; not shown: His tag
T3 sequence (looked up): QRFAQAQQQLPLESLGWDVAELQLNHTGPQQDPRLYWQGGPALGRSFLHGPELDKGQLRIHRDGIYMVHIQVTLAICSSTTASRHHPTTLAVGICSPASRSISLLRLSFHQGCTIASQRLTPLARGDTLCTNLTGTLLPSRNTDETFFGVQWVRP
In words: BLI (Octet RED), antibody on anti-human IgG Fc tips, CD70 ECD-His in solution 200 to 3.13 nM, 1:1 global fit. As for the experimental part:
as §2

For series [7], the target named is T4, Recombinant cynomolgus monkey CD70 extra-cellular domain (ECD) linked to His tag (cynomolgus monkey, UniProt A0A2K5WTU9 39-190).
T4 construct: extracellular domain; Purchased or made in house; also called Cyno CD70; not shown: His tag
T4 sequence: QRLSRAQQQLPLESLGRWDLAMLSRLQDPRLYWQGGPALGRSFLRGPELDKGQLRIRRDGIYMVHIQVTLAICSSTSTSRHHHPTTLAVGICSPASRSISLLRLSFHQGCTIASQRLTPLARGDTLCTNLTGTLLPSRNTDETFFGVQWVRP
The series is described as above. As for the experimental part: as §2

The target in series [8] is T1, Human CD70 on CD70-expressing human …. In words: flow cytometry blocking assay on Raji cells; blocked ligand: biotinylated human CD27 at 30 ug/ml, detection with PE-conjugated streptavidin. As for the experimental part:
(§3) CD70-positive cell lines 786-O, Raji and Caki-1 were mixed with varying concentrations from 333.5 nM down to 6 nM of 2E7-LD038 conjugate, or 2E7 antibody, or negative binding control (B12), and incubated at 4° C. for 30 minutes. Cells were washed twice with PBS and then incubated with 30 µg/ml biotinylated human CD27 (the receptor for CD70) at 4° C. Staining was done using PE-conjugated streptavidin for 30 minutes and fluorescence was measured using flow cytometer.

Series [9] has the same target. In words: flow cytometry blocking assay on 786-O cells; blocked ligand: biotinylated human CD27 at 30 ug/ml, detection with PE-conjugated streptavidin. As for the experimental part: as §3
For series [10] the target is unchanged. In words: flow cytometry blocking assay on Caki-1 cells; blocked ligand: biotinylated human CD27 at 30 ug/ml, detection with PE-conjugated streptavidin. As for the experimental part: as §3
Series [11] in a line: Hydrophobic interaction chromatography (HIC) of anti-CD70 antibodies. It counts as physicochemical. The conditions noted are these: for Retention time (hydrophobicity): TSK gel Butyl-NPR. As for the experimental part: Antibodies were purified from cleared cell culture supernatants using Protein A chromatography (Protein A resin slurry, 4.5 mL, Bogen, Cat #18-0010-02). Briefly, supernatants were prepared for affinity chromatography and loaded onto the columns and allowed to flow completely through the resin. The columns were washed with binding buffer containing 0.15M NaCl and 0.2M PB, PH7.0. Antibody was eluted with elution buffer containing 0.15M NaCl, 0.1M Glycine and 0.2M PB, PH 3.0. Fractions were collected and neutralized by the addition of 1/10 volume of 1M Tris, PH9.0. The fractions were dialyzed for 2 hours against 1×PBS. Purified antibody was quantified by absorbance at A280. Samples from each step of the protein A chromatography were applied onto 12% SDS-PAGE gels for reduced and non-reduced electrophoresis. The hydrophobicity was assessed with hydrophobic interaction chromatography (HIC) on a TSK gel Butyl-NPR, 4.6×100 mm with Butyl-NPR (Tosoh corporation) using a Waters HPLC 2695 system.

The target in series [12] is T2, Recombinant mouse CD70 extra-cellular …. In words: BLI (Octet RED), conjugate on anti-human IgG Fc tips, CD70 ECD-His in solution 200 to 3.13 nM. The procedure:
as §2

The target in series [13] is T3, Recombinant human CD70 extra-cellular …. As to the kind of experiment: BLI (Octet RED), conjugate on anti-human IgG Fc tips, CD70 ECD-His in solution 200 to 3.13 nM, 1:1 global fit. The procedure:
as §2

For series [14], the target named is T4, Recombinant cynomolgus monkey CD70 …. Described as above. The procedure: as §2

What is called EC50 is the concentration that produces a half-maximal response. As a reminder, the Kd is a measure of binding affinity in units of concentration. Broadly, the koff is the rate constant with which the complex falls apart. In general, kon refers to the second-order rate constant of association. A word on the IC50: it is the concentration that inhibits the measured activity by half.

On to `CC[C@@]1(O)C(=O)OCc2c1cc1n(c2=O)Cc2c-1nc1cc(F)c(C)c3c1c2[C@@H](N)CC3` [Exatecan, exatecan], for which the cytotoxicity result in [1] is recorded as “cytotoxic on all cell lines”.

B1: 2E7 antibody (antibody, human IgG1, kappa, V domains shown)
VH: QVQLQESGPGLVKPSETLSLTCTVSGGSVSSDYYYWSWIRQPPGKGLEWLGYIYYSGSTNYNPSLKSRVTISVDTSKNQFSLKLRSVTTADTAVYYCARGDGDFLGVCFDYWGQGTLVTVSS
VL: EIVLTQSPATLSLSPGERATLSCRASQSVSSYLAWYQQKPGQAPRLLIFDASNRATGIPARFSGSGSGTDFTLTISSLEPEDFAVYYCQQRSNWPLTFGGGTKVEIKR
notes: Made in ExpiCHO-S cells and purified on Protein A; also called Ab 2E7; parental mAb (2E7)
On to B1, for which the EC50 turned out to be 19.9 nM in series [2], 2.81 nM in [3] and 1.59 nM in series [4]. For the same molecule, the binding result in series [5] is listed as “no binding (tested: 200 nM)”. The figures for the Kd in series [6] and in [7] were 0.807 nM and 0.39 nM, respectively. In addition, the koff in series [6] amounted to 0.000254 s⁻¹; in series [7], 0.000241 s⁻¹. The kon in series [6] was found to be 314000 M⁻¹ s⁻¹; in series [7], 618000 M⁻¹ s⁻¹. Further, the IC50 in series [8] came to 8.78 nM; in series [9], 6.24 nM; in [10] it was 7.04 nM.

B2: 2D2: anti-CD70 clone with "at least two more amino acid substitutions in HCDR3/LCDR3" "compared with the parent antibody 69A7" (antibody, V domains shown)
VH: B1 VH with F104Y, L105G, V107N
VL: EIVLTQSPATLSLSPGERATLSCRASQSVSSYLAWYQQKPGQAPRLLIFDASNRATGIPARFSGSGSGTDFTLTISSLEPEDFAVYYCQQRLKFPLTFGGGTKVEIK
As to B2, the “Retention time (hydrophobicity)” value in series [11] is on record as 8.81 min.

B3: 2A4: anti-CD70 clone with "at least two more amino acid substitutions in HCDR3/LCDR3" "compared with the parent antibody 69A7" (antibody, V domains shown)
VH: B1 VH with F104Y, L105G, V107N, C108V, D110P
VL: B2 VL with L92S, K93N, F94W
Regarding B3, in [11], the “Retention time (hydrophobicity)” value is 9.06 min.

B4: 2E7-LD038 conjugate (antibody, human IgG1, kappa, DAR 8, V domains shown)
VH: B1 VH
VL: B1 VL
modifications: Drug-Linker LD038 (PB038; PEG unit, cleavable linker, exatecan) attached to cysteines after TCEP reduction; DAR8 for the whole antibody; residues not stated
notes: The constant regions are tied to 2E7 by claim 120; also called PA038; ADC PA038
Take B4: the results for the EC50 in [2], in series [3] and in series [4] were 26.4 nM, 2.16 nM and 1.45 nM, respectively. The binding result in series [12] was “no binding (tested: 200 nM)”. The results for the Kd in [13] and in [14] were 0.12 nM and 0.144 nM, respectively. In addition, the figures for the koff in [13] and in [14] were 5.45e-05 s⁻¹ and 9.4e-05 s⁻¹, respectively. The on-rate (kon) in [13] was found to be 456000 M⁻¹ s⁻¹; in [14], 652000 M⁻¹ s⁻¹. For the same molecule, the IC50 in series [8] came out at 11.6 nM; in [9], 7.35 nM; in series [10], 8.03 nM.

B5: 1H8: anti-CD70 clone with "at least two more amino acid substitutions in HCDR3/LCDR3" "compared with the parent antibody 69A7" (antibody, V domains shown)
VH: B1 VH with L105M
VL: B2 VL with L92S, K93N, F94W
As for B5, in [11], the “hydrophobicity compared with parent antibody 69A7” value was “slightly more hydrophobic than the parent antibody” and the “Retention time (hydrophobicity)” value came to 10.24 min.
